The target of one assay is T1, murine GPRC5D (murine, UniProt Q9JIL6 1-344).
T1 construct: whole, on cells; also called murin GPRC5D
T1 sequence (looked up): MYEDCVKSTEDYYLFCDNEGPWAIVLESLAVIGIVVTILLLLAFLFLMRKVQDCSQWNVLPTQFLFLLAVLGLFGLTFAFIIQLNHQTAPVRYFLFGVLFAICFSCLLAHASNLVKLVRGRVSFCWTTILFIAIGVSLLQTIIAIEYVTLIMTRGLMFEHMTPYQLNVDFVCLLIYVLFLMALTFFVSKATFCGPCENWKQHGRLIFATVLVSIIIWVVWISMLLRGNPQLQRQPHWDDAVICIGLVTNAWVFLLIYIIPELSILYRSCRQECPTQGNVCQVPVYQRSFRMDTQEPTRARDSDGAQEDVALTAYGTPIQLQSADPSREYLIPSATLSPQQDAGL
Description: cell ELISA on stably transfected CHO cells. Here is the method:
(§1) Stable transfected CHO clones expressing either human GPRC5D or cynomolgus GPRC5D or murin GPRC5D or human GPRC5A were used to analyze the binding of potential lead candidate antibodies as IgGs. In detail, 10⁴ cells (viability≥98%) were seeded into 384 well-microtiter plates (BD Poly D-Lysin, #356662, volume: 25 μl/well) using fresh culture medium. After overnight incubation at 37° C., 25 μl/well dilutions of antibodies were added (15×1:3 dilutions in 1×PBS, assay conc. starts at 30 μg/ml) to the cells for 2 hours at 4° C. After one washing step using 90 μl/well PBST (10×PBS, Roche, #11666789001+0.1% Tween 20), cells were subsequently fixed by the addition of 50 μl/well 0.05% glutharaldehyde (Sigma Cat. No: G5882 in 1×PBS) for 10 min at room temperature (RT). After three additional washing steps using 90 μl/well PBST, secondary antibodies were added for detection: for human antibodies goat anti-human Ig κ chain antibody HRP conjugate (Millipore #AP502P) diluted 1:2000 in blocking buffer (1×PBS (Roche #11666789001)+2% BSA (Bovine Serum Albumin Fraction V, fatty acid free, Roche, #10735086001)+0.05% Tween 20) was used (25 μl/well). […] After incubation for 1 h at RT and three additional washing steps using 90 μl/well PBST, 25 μl/well TMB substrate was added (Roche order no. 11835033001) for 10 min and color development to final ODs was determined by measurement at 370 nm/492 nm.
(§2) Cynomolgus crossreactivity was also detected for all other antibodies but at lower levels compared to 10B10 and 07A04 (FIG. 9). No significant binding to CHO cells expressing murine GPRC5D and no binding to CHO cells expressing the human version of GPRC5A was detected (FIG. 9).
(In an ELISA, binding on a coated surface is turned into a signal by an enzyme label.)

The target in a further assay is T2, human GPRC5A (human, UniProt Q8NFJ5 1-357).
T2 construct: whole, on cells; also called hu GPCR5A
Nature of the assay: cell ELISA on stably transfected CHO cells. The procedure:
as §1, §2

The values below come from patent publication US20210054094A1 (Hoffmann-La Roche, published 2021).

T2 sequence (Q8NFJ5 whole entry): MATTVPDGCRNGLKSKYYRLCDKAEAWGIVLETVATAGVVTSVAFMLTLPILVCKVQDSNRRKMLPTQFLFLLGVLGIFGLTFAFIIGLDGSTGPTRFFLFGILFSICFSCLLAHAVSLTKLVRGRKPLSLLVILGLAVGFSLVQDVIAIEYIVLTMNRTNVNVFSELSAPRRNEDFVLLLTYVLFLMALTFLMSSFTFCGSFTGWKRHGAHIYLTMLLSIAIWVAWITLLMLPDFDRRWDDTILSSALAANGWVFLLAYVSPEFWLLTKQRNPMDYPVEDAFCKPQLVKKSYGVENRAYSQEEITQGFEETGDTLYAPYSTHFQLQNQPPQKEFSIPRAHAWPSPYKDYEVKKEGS

B1: 07A04 IgG (antibody, V domains shown)
VH: QVTLKESGPGILQPSHTLSLTCSFSGFSLSTYGMGVNWIRQPSGKGLEWLASIWWNGNTYNNPSLKSRLTVSKDTSNNQAFLKVTSVDTADTATYYCVHTRGIIRGRGLFFDYWGQGVMVTVSS
VL: DVQMTQSPYNLAASPGESVSINCKASKSISKYLAWYQQKPGKANKLLIYDGSTLQSGIPSRFSGSGSGTDFTLTIRSLEPEDFGLYYCQQHNEYPLTFGSGTKLEIKR
notes: also called rat IgG 07A04
As to B1, the binding result in the assay with murine GPRC5D and with human GPRC5A was “no binding (tested: 30 µg/ml top concentration)” each time.

B2: 10B10 IgG (antibody, V domains shown)
VH: EVQLVESGGGLVQPGRSMKLSCAASGFTFTNFYMAWVRQAPTKALEWVASINTGGGYTYYRDSVKGRFTVSRDNTRSTLYLQMDSLRSEETATYYCARHLTYYGRYYYFDYWGQGVMVTVSS
VL: DIQLTQSPHSLSASLGETVSIECLASEGISNYLAWFHQKPGKSPQLLIYYASSLQDGVPSRFSGSGSGTQYSLKISNMQPEDEGVYYCQQGYKYPLTFGSGTKLEIK
notes: also called rat IgG 10B10
As to B2, the binding result with murine GPRC5D and with human GPRC5A was “no binding (tested: 30 µg/ml top concentration)” each time.
